# Results: publication PMC4167235
# Target: secretory phospholipase A2 (sPLA2) from Crotalus durissus terrificus (Crotalus durissus terrificus) (UniProt P62022)
# Experiment: MALDI-TOF mass spectrometry
substance,measurement,value
secretory phospholipase A2 (sPLA2) from Crotalus durissus terrificus (from UniProt P62022 17-138) (enzyme),stoichiometry N,2
